According to PMC8515915 (Genome Medicine, 2021):

Molecular target: T1, SARS-CoV-2 RBD wildtype, soluble fragment 319-591 with C-terminal 8 × His tag (SARS-CoV-2, UniProt P0DTC2)
T1 construct: source: ExpiCHO-S, transient, purified (His Trap Excel)
Assay: BLI
Settings: both partners purified

B1: CB6 (antibody, V domains shown)
VH: EVQLVESGGGLVQPGGSLRLSCAASGFTVSSNYMSWVRQAPGKGLEWVSVIYSGGSTFYADSVKGRFTISRDNSMNTLFLQMNSLRAEDTAVYYCARVLPMYGDYLDYWGQGTLVTVSS
VL: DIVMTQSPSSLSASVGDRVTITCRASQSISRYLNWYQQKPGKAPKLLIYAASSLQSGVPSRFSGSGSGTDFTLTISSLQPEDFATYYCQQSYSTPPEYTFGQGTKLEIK
notes: source: ExpiCHO, heavy and light chain plasmids cotransfected, purified (Protein A)
Kd: 10.7 nM
